{"source": "paper PMC8072286", "about": "“Gcn5-Related N-Acetyltransferases (GNATs) With a Catalytic Serine Residue Can Play Ping-Pong Too” (Frontiers in Molecular Biosciences, 2021)", "proteins": {"B1": {"name": "PA3944 (Pseudomonas aeruginosa PAO1) (protein)", "chain": "MNANLPPSAISELHGPRLLLRAWRDSDREAFAEMCADPQVMEFFPSVLDRAQSDALVDRVQAHFAERGYGPWALELPGEAAFIGFTGLFDVTMDVHFAPTVEIGWRLAPAYWGRGLAREAAETALDFAFERLRLPEVVAFTTPPNRRSWGLMERLGMRRDPAEDFDHPLLAADHPMRRHILYRVDAARWAER", "notes": "heterologous expression; N-terminal polyhistidine tag kept for kinetics, removed for crystallization; monomer in solution"}}, "substrate": "CCCCCCCC(=O)N(C)CCN", "test": "steady-state acetyltransferase assay, substrate saturation", "type": "biochemical, Pseudomonas aeruginosa", "details": "AcCoA held at 0.5 mM; NANMO 0-3.5 mM, used as hydrochloride", "excerpt": "steady-state acetyltransferase assay, substrate saturation on PA3944"}
{"protein": "B1", "values": [{"measurement": "Km", "result": "1070 ± 30", "unit": "µM"}, {"measurement": "kcat", "result": 0.41, "unit": "s⁻¹"}, {"measurement": "kcat/Km", "result": 380, "unit": "M⁻¹ s⁻¹"}]}
